Test: soluble on expression in E. coli; label from the status in PepcDB or PDB records

Sequence	soluble on expression in E. coli
MGSDKIHHHHHHMSIVDKFGEKVGEIAENDPVKARKLLLAGYRLQEKRLALFPDRKLPMSGQYVAKIVMNNIIQALAKPENAAMVSIFVPGELLTAAGLTPYSVEALSCFIAGTKCEQAFLRQTEKEGFPETMCSYHRVFLGAALNGIVPKPKCMVYTNLACDGNMMTFPYLKERYEIPSFYIDVPYEKNYDSVMYVAKQLRELKSFLQDVTGREITEESVKKAVDKSKIASNNYYRQLHLRKGHDIASTLTNELYALFMCHLLAGTDESVRYTQLLRDDVRRAPAGDGFHVLWMHTMPFLQDAVKDVFNYSDTIHISASDFIADGFRSMESDDPYEALAEKMVYCIYNGSVNQRIDEAKELADTVGADGAVLFAHWGCKNTIGASSLIKRSLEREGLPTMVLDGDGCNPANASDGQISTRLQAFVEMLTEQERN	not soluble
GAMATSESPDAYTESFGAHTIVKPAGPPRVGQPSWNPQRASSMPVNRYRPFAEEVEPIRLRNRTWPDRVIDRAPLWCAVDLRDGNQALIDPMSPARKRRMFDLLVRMGYKEIEVGFPSASQTDFDFVREIIEQGAIPDDVTIQVLTQCRPELIERTFQACSGAPRAIVHFYNSTSILQRRVVFRANRAEVQAIATDGARKCVEQAAKYPGTQWRFEYSPESYTGTELEYAKQVCDAVGEVIAPTPERPIIFNLPATVEMTTPNVYADSIEWMSRNLANRESVILSLHPHNDRGTAVAAAELGFAAGADRIEGCLFGNGERTGNVCLVTLGLNLFSRGVDPQIDFSNIDEIRRTVEYCNQLPVHERHPYGGDLVYTAFSGSHQDAINKGLDAMKLDADAADCDVDDMLWQVPYLPIDPRDVGRTYEAVIRVNSQSGKGGVAYIMKTDHGLSLPRRLQIEFSQVIQKIAEGTAGEGGEVSPKEMWDAFAEEYLAPVRPLERIRQHVDAADDDGGTTSITATVKINGVETEISGSGNGPLAAFVHALADVGFDVAVLDYYEHAMSAGDDAQAAAYVEASVTIASPAQPGEAGRHASDPVTIASPAQPGEAGRHASDPVTSKTVWGVGIAPSITTASLRAVVSAVNRAAR	soluble
MSNRKFNLDNEVQPEIHFRLLSISASKFENDWTSFPHSHHFTEIFFIKDGTGRMLIENESLPVSSNSLVVIGAQVTHTEFSDPENPLDYYVLGVEGLKLNTDKEPEYIHVPASANSPFIRQCFENILREMHNKQDRYAEICQHYLDILILYFCRKDHVSYEVVDAQNSSRECHKVKRFIEHNYQSMISLDSLAENCSLSKYYLSHRFAELYGKSPIAYLNEVRLASARDLLLTTNHSIEEIAGCIGFSSTSYFSQSFQKNFHESPQQFRKSHRVRT	not soluble
MGSDKIHHHHHHMKGFDAKFRDFPDYIVGITKEIWEDRGIATLHEYYAEDIVVRSPASVVTGNQGVIAATMATLAEFPDRVLLGEDVIWSGTPEDGMLSSHRIISQATHAGDGVYGAATGKRLEYRILADCHAKNNAIDDEWLIRDQTAIVTQLGWTPRDYAADLIMREGGPEACVKPLTPDTDQPGPYKGRGNDNPWGERLADVLTRIMGADMAAIPEVYDRACHLEYPGHVTAHGPAEADRFWMSLRAAFPNAAFTIDHQIGREDDHMPPRAAIRWSLHGTHEGWGGFGQPTGAEVYIVGITHAEFGQVGTAEPKLRREYTLFDETSVWKQILLHEAAK	not soluble
MGSDKIHHHHHHMLTDMQRDSASSSTVTTEQIVYGALPLTTINEPECRAIAITSINGSATLSGVSGPMGDQTDADLLIQLRGWADAIVVGAETARKENYGPVVLPHGIKNQRQKLGRCGLPKLTLLSKSLYFDFSSELFSPDLPSELSPLVITQQPANNSEQWDQRLQKLIDVGVEVIVAPTSTNPLKIAFDALHARRLKKISIEGGPSVYRQALSLGIVDRLHLTIAPNIICPVESPLFGKISDDSFTTRLVLEMLSSSPNGLIFSRYKVIRDTLGNPTQ	not soluble
MGSDKIHHHHHHMKTTLAERLKTARTAQGLSQKALGDMIGVSQAAIQKIEVGKASQTTKIVELSNALHIRPEWLANGGGPMHSDRVVRSLQESSIPPTSKWGTVSAWDNTTKLSEDEVEVPFLKDIEFACGDGRIQSEDYNGFKLRFSKATLRKVGANTDGSGVLCFPAAGDSMEPIIPDGTTVAVDTNNKRIIDGKLYAIAQEGSGNDKLKRIKQLYRKPGGLLVIHSFNRDADEEAYESEVEIIGRVFWYSVLL	not soluble
GSSSSLPLYNQQVGDCCIIRVSLDVDNGNMYKSILVTSQDKAPTVIRKAMDKHNLDEDEPEDYELLQIISEDHKLKIPENANVFYAMNSAANYDFILKKR	soluble
MGSDKIHHHHHHMKNNKNEKLKITIVSGFLGSGKTTFLTHYINELLKIDEKITVIMNEFGSFDVDGNHLSELVKVYPLLNGCVCCDMKSDLVQQIEMLSHNHETDHIIIEATGIAHPIELIMACQDPRIVQFVERPHVVSIVDALRFLQRQQYTDSTKRLMEEQLEVSDVLVVNKLDLISVEDRDALKNQLNEVNKYSSKIYTTYGQVNIEELSQFRDQLVMTHTHSHHHGINSMQYTFTTAIDRQLFYQFILRMPDNVLRLKGYVQFKDEPNVTYEFQYSFGMPDYEVINGDYPLTIVLIGEQLDVNRLKNKLDVLQFS	not soluble
MSDTANAAVEIGEEALEQKLEELSVQDKTTPSNSEEKMRKRRLPTAERIRLWEEEQKSKTAITTGLQGKVKWYSVLRRYGFISRNDGEKDIFVHQTAIAKSATEKFYLRTLGDDEEVLFDLVEGKNGPEAANVTGPNGDNVIGSRYRHKLLSRFRKNRKPRASVDGEESQSTDAKPQEMSADAEKKKPRKQRKNRNRKSKAQQKGAGDAADSSAVTESSESASDVASPDSKSCSKIITEEAGLSKVDRCDSALGEAGLGAQPIDAQI	soluble
MTNQNVLLNISGVKFVLRIPNAVNLSLINREYEAFNNAQAYRAGLNVETPVLDAKSGVKLTRYLENSNTLSQIQLNEQSCLSQVVNNLYRLHNSEFVFRNVFSVFDEFRQYFSLLENKSAFYQADSRMDKLSAVFWQFEEINKEVILRPCHNDLVPENMLLQDDRLFFIDWEYSGLNDPLFDIATIIEEAHLSKEAADFLLETYCNQTNKYHKTEFQIAHKRLKIHRFCQNVLWFLWTKVKEEHGENFGDYALKRLDAAFKLLEELPLEHHHHHH	not soluble
MGSDKIHHHHHHVNVEVCLFLIGHGAPGSEAGSTELSRFEAASQDIEGLRRFAIHVPAQADDCDPLSKTDASTCPRCVLQWYFDDLELLERTLQPGRAIHDLVDGSSNNGLTFTHQVMAVRTFATPNPSGPGTRAERCTYLVSYEGEAQDFNAWLTHYLLHHPPLMAQLPGIRELEIYTRLDYRSGLRIRRATAMQRNKVVFDDPAALAAALASPVRASMKQDFNAFPPYSGATLHFPMRSIYGNLKPK	not soluble
MGSDKIHHHHHHMKNNETKVPTSRLSRLSKMGGLASRLAGNVLLEGAKQLSQGKSPSMQQLMMTPKNIGHVADKLSQLRGAAMKVGQMLSMDAGDLVPPELAEILAKLRSDAKAMPHKQLTQLLVQHWGHDWLAPFAQFELRPFAAASIGQVHLAYLDTGEKLAIKIQYPGIRDSIDSDIDNVASLLKVSRLIPANVKLDTLLAEAKAQLHNEADYHFEAQQIALYQQQLGDSPHFIVPKVYPKLSNNSILCMQFVEGVAIESVEHSPQDVRDKVASALMELCFKELFCFQLVQSDPNFANFQYQADSQKIVLLDFGATRTISDTLSQGYMQLMQGAIADDKQQMIQAAQQIGFFQDAIDPQQKQLIIDIFYQACEPLRTQGTYDFGASNLAKRITQAGKAMSTQQNEWHTPPTDAIFIHRKLAGMYLLAAKLNANINVHALFNQVVNSKNE	not soluble
MSLDKNSKSFGEANERIGNAIHHVCLNASDAKFIKSNIQESYQSWANVLYDRVFLNWGLCDKKIYRELSSLNFDFSTVGFFPHVYGQSLLFYLIRPLIKIHFFNKRLLDVGCGNGVGLKISSELLKTRYALGIDLVSKLVTNSNNSFYIEDKINYMQADAENMAIANESFDIVTNLESSHLYPQIEHFFSEVERVLAPNGFFCYADVHFDVKQQAQRLEAFVKTKKNLRIIEKHNITKMVQASIYQRLIVNEKGFYQLAQYLLGPDKIHYTSELANVASSMGLMFLPWWRIRFKNPALQALGKFARRCKHWNKKYYFYYLIQKIDSEGHHHHHH	not soluble
RVEVGGSGDAAAVLGLGAVLQGQGQGTSPSPSGLRPQPEAALPPLERLPKPVLVQVASRCRRNDSRSPTHRKITRGAVGLFHPQLYLSGGNCIECGNEMMSRGKFERLAGTATAKWHVSIKVLPSGVTLGKWLQQHGLPILQGEPRQWRRPRCPCATSCAARCRRASNRRK	not soluble
MGSDKIHHHHHHMCMYSATFTLEAITPVFMRGANQSKAEIRAASIKGLMRWWFRALSGSYFGNDVEGLRRVEEYVFGSTKRESRVVVEVVKEHVEERFCPLPMVWKKKKGVTTRVSQRAIAPGSKFTLLLTSDDEEVLKLACYSLIGLVYFGGIGFRCSRGAGSLKISSLKSDVQLIDLPKNKNQLGQMVNDLTVEIAKILKKTFLCDHENKNCTSYSSFWCFYLFLWGEKAELEEVYYRSNNLENERLTLLDLFEKEFKNKNNHLSNYGYRDFVFGLPRGTKKDRRASPIKVGITELSEKYHVRVSVFKTKIFKPGMNVKWDNIFVFLENIGAERIYPER	not soluble
MGSDKIHHHHHHDGDDMSSCSSHSSFGSEYSEENKVNCTIDNFPVQAIALERCDGTLDSLFTKENLAMKRPQLRSAMFQIVMSLRVLQKAFRFTHNDLHTNNVVWCATDRKYLFYKHNSKYYRVPTFGRIFKIIDFGRAIYRFRGETMCSDSYHPSGDAGSQYNCEPYFNPNKPLLEPHFGFDLARLGCSLYELVDAEDVDDNGIINEEKLGDVERMIVSWCRDDKGRNILFKRDGDERYPGFKLYKMIARTSHDHTPEKMLAGYVFDTYLMAAKKCKKQERLMDVDAIPDYTEVVVGGDGKEVNATS	not soluble
MGSDKIHHHHHHMHTGPTVFKQLLQFLPRYEFNLCVRRHRGEYREKKFSTYDQFLCLAYAQMAGRESLRDIETCLNSHQEKLYHIGFRGDVSRTTLADANERRDWRIFQDFGHVLIGIAQQLYQADAISVELTQPLYAFDSTTIDLCLTLFPWAEFRKTKAAVKMHTLIDLRGPIPTWVTITTGKVHDVRMLDHLPVAKDAIYTMDRGYVDFARLHSIHKQGAFFVVRAKDNLKCQRLYSHPKDKESGVRADQIITLVTQKSKKGYPEKLRRVSYVDKERNKRLVFLTNNFEIPAATVAAIYKQRWQVELFFKWIKQHLRIKSFIGTSVNAVKSQIWVALCIYLLVAITKKKLGVPCSLYTFLQILEVNLFEKKPISSLVAEALKRNADYPERNQLNLFNY	not soluble
MFIVKAFRDIIINIKFLQEGINMSDNKTAGQKLWENLSYNCPNVWNKIGNDEIKNTFAFCEEYKSFLDKSKTEREFVRETKKLAESKGFVSIDDVIDSGKPLKPGMKVYRVFKNKIVALAVIGSQPPEKGFNLVGAHIDSPRIDLKPNPIYEANEMVFLKTHYYGGIKKYQWVTIPLSMHGVIIRKDGSSVEIVIGEDENDTVFTITDLLPHLAAEQMQKKMSEGITGENLNILFGSIPYNDEKVKEKVKLNILKLLNEKYNITEEDLLSAELELVPSFKAKDVGLDKSMVGAYGQDDRVCAYTALRAVLDLDNVDKTAVCVLTDKEEIGSMGNTGAQSSFLENFIADICALSSEKYTDIILRRCLSNSKMLSADVNAAIDPTYEGVYDKLNSSFIGKGIVLLKYTGARGKSGASDAHAEFMGEVRKLFNERKIFWQTAELGKVDQGGGGTIAQFVANMGMDVIDCGVAVLSMHSPFEVTSKVDIYMAYKAYREFLKYIK	soluble
MRDLKIVNGDLSFIDYGILLVEGDLELAQSVFMILSIRLEEFKLDTSVGLESDNMFGKNYNEDYLKQDITEAILDQEPRINSIENIEIVRNNRQLNITVEMLSTLGDEVEVVIRA	not soluble

Source: the DeepSol protein solubility set
